Columns and labels:
[1] = molecular target: T1, HER-2 (erbB-2), human receptor (human, UniProt P04626 23-1255); assay: saturation binding to HER-2/3T3 cells, herstatin ELISA, nonlinear regression (FIG. 5B)
T1 construct: On HER-2-transfected Cos-7 cells or 3T3/HER-2 cells (cell ELISA), or from transfected Cos-7 cell extracts (pull-down)
Procedure: (§1) ELISA. […] Cells were washed with Phosphate Buffered Saline (PBS) and extracted in 50 mM Tris-HCl, pH 7.0, 1.0% NP-40.
(§2) Statistical comparisons between different binding curves were performed by extra sums-of-squares F-test nonlinear regression coefficients. All tests were performed (α=0.05) using GraphPad Prism 4™ software (GraphPad™ Software, 1994-2003).

[2] = molecular target: T2, EGFR (HER-1, erbB-1), human epidermal growth factor receptor (human, UniProt P00533 25-1210); assay: saturation binding to EGFR-transfected Cos-7 cells, herstatin ELISA, nonlinear regression (FIG. 5A)
T2 construct: also called EGF receptor
Procedure: as §1, §2

[3] = molecular target: T1, HER-2 (erbB-2), human receptor; assay: saturation binding to HER-2-transfected Cos-7 cells, herstatin ELISA, nonlinear regression (FIG. 5A)
Procedure: as §1, §2

[4] = molecular target: T3, IGF-1R, insulin-like growth factor 1 receptor (human, UniProt P08069 31-1367); assay: saturation binding to IGF-IR/3T3 cells, herstatin ELISA, nonlinear regression (FIG. 5B)
T3 construct: On IGF-IR transfected 3T3 cells (hIGF-1R-3T3) in cell ELISA, or from their extracts in pull-downs (detected through the beta subunit); The entry is the precursor; the processing into alpha and beta subunits is not described; also called IGF-IR; IGF-1 receptor
T3 sequence (P08069 31-1367 limits assumed): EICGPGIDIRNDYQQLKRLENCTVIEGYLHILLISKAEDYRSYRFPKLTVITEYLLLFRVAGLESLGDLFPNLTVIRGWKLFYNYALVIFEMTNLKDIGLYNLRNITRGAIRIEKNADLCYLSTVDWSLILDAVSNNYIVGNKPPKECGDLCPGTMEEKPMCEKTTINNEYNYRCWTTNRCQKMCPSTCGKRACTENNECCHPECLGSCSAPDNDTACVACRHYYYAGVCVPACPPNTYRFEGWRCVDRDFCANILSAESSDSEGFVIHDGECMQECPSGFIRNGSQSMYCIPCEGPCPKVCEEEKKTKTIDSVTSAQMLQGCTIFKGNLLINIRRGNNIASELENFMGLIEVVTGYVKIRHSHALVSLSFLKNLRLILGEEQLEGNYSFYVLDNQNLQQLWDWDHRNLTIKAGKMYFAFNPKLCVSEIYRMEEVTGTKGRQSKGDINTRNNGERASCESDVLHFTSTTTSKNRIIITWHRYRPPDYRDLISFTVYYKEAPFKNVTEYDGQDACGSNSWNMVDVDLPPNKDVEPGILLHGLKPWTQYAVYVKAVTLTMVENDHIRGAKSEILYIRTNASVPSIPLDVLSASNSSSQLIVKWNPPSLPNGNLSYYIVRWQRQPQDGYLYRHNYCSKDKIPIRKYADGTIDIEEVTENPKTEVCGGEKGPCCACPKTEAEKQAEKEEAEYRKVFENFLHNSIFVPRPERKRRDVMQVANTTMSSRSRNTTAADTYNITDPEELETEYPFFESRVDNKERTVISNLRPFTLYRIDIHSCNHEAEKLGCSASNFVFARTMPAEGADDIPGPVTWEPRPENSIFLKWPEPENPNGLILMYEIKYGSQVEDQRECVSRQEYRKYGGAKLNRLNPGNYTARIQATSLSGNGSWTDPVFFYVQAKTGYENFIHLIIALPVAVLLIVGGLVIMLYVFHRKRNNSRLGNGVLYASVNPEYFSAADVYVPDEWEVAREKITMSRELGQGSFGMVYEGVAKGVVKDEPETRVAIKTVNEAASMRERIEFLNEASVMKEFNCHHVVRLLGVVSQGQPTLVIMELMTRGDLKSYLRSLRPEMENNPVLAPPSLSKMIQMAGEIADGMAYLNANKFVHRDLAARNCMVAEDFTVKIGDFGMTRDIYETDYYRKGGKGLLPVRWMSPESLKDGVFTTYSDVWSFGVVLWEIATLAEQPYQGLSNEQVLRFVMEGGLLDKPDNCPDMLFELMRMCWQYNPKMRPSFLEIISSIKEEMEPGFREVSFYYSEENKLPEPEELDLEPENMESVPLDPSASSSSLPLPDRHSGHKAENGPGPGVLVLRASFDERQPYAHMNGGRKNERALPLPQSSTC
Procedure: as §1, §2

[5] = molecular target: T3, IGF-1R, insulin-like growth factor 1 …; assay: saturation binding to IGF-IR transfected 3T3 cells, herstatin ELISA, nonlinear regression
Procedure: as §1, §2

[6] = molecular target: HER-4 (erbB-4), human receptor (human, UniProt Q15303 26-1308); assay: ELISA of Int8 bound to transfected cells (FIG. 3B)
Chain of HER-4 (erbB-4), human receptor (Q15303 26-1308 limits assumed): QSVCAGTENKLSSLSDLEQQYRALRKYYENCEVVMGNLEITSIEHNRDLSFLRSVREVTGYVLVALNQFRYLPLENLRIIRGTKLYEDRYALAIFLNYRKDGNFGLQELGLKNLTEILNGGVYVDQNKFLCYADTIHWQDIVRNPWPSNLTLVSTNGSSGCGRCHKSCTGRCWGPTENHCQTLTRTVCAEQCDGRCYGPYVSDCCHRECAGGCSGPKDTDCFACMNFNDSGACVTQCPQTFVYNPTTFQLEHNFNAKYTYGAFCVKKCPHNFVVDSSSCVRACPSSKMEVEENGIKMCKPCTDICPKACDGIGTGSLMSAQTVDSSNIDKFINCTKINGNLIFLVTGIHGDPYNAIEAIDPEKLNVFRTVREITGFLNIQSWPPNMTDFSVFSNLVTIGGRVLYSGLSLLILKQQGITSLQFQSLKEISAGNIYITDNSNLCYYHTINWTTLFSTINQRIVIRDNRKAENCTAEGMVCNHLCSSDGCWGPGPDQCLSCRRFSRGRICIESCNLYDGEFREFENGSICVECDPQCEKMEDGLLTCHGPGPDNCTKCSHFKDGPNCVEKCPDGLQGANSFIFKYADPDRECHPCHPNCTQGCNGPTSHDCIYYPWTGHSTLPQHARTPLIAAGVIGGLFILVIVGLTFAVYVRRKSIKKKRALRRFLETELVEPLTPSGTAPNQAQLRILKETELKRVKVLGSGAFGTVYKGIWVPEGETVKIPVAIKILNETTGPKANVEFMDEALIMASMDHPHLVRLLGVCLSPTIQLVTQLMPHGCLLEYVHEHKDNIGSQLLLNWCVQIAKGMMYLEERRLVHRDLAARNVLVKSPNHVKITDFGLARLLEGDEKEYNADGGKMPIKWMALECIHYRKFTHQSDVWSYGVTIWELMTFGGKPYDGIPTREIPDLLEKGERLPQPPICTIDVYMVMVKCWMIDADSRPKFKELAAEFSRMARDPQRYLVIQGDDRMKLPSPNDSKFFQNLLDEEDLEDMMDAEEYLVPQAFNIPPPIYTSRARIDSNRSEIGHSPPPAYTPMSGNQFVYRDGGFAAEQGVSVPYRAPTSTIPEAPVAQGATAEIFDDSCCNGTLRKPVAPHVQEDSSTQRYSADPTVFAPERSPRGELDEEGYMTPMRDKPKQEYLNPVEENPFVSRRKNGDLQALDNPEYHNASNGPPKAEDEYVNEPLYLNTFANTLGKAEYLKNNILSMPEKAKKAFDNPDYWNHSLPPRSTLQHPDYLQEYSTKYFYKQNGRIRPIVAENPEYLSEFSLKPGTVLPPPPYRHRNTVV
Procedure: as §1

[7] = molecular target: T3, IGF-1R, insulin-like growth factor 1 …; assay: saturation binding to IGF-IR 3T3 cells, herstatin ELISA (determination of EXAMPLE 2)
Procedure: as §1, §2

[8] = molecular target: T1, HER-2 (erbB-2), human receptor; assay: herstatin ELISA of peptide bound to HER-2 overexpressing cells
Procedure: as §1

[9] = molecular target: T1, HER-2 (erbB-2), human receptor; assay: pull-down of HER-2 from transfected cell extracts, Western blot
Procedure: Methods. Cell lines, expression vectors, protein purification, pull down assays, antibodies and ELISA assays were as described under EXAMPLE 1, herein above. […] Following washing steps, the protein bound to the agarose was analyzed as a Western blot with receptor-specific antibodies.

Row | Binder | Kd [1] [nM] | Kd [2] [nM] | Kd [3] [nM] | Kd [4] [nM] | Kd [5] [nM] | binding result [6] | Kd [7] [nM] | fold weaker binding than the wildtype peptide [8] [fold] | fold weaker binding than the wild type sequence (SEQ ID NO:24) [9] [fold]
1 | RBD Int8 polypeptide (intron 8-encoded receptor binding domain of herstatin, expressed as a bacterial peptide) (Purified from BL-21 bacteria; also called Int8 RBD polypeptide; Int8 peptide; not shown: pET 30 vector-encoded tags (His tag used for nickel purification, S-protein tag used for immobilisation)) GTHSLPPRPAAVPVPLRMQPGPAHPVLSFLRPSWDLVSAFYSLPLAPLSPTSVPISPVSVGRGPDPDAHVAVDLSRYEG | 66 | 78 | 50 | 70 | 40 to 150 | binds | 40 |  | 
2 | mutant Int8 polypeptide with Arg to Ile mutation at residue 31 (peptide, not shown: small tags and cut ends, also called mutant RBD Int8 polypeptide; mutant Int8 RBD polypeptide) GTHSLPPRPAAVPVPLRMQPGPAHPVLSFLIPSWDLVSAFYSLPLAPLSPTSVPISPVSVGRGPDPDAHVAVDLSRYEG |  |  |  |  |  |  |  | ~2 | ~2

Reference: US20050272637A1 (OREGON HEALTH AND SCIENCE UNIVERSITY, published 2005)
